From article PMC11642874 (bioRxiv, 2024)

Columns and labels:
[1] = target: Human mitochondrial RNA polymerase (POLRMT) Δ42 (human, UniProt O00411 43-1230); experiment: cryo-EM structure
[2] = target: T1, POLRMT-LSPDNA(−42to+9)-TFAM (P-D-T) complex (human, UniProt O00411 43-1230; Q00059 43-245); experiment: fluorescence polarisation
[3] = target: T1, POLRMT-LSPDNA(−42to+9)-TFAM (P-D-T) …; experiment: fluorescence polarisation; remark: listed apart in the source
[4] = target: POLRMT Δ42;TFAM Δ42;TFB2M Δ41, Alexa488 (human;human;human, UniProt O00411;Q00059;Q9H5Q4 43-1230;43-246;42-396, ||); experiment: fluorescence polarization
[5] = target: POLRMT Δ42;TFAM Δ42;TFB2M Δ59 (human;human;human, UniProt O00411;Q00059;Q9H5Q4 43-1230;43-246;60-396, ||); experiment: SEC and DLS
POLRMT Δ42;TFB2M Δ59 = POLRMT Δ42;TFB2M Δ59 (human;human, UniProt O00411;Q9H5Q4 43-1230;60-396, |); experiment: cryo-EM structure 3.15 A
Sequence of POLRMT Δ42;TFB2M Δ59 (O00411 43-1230, stated change not applied, one chain of several): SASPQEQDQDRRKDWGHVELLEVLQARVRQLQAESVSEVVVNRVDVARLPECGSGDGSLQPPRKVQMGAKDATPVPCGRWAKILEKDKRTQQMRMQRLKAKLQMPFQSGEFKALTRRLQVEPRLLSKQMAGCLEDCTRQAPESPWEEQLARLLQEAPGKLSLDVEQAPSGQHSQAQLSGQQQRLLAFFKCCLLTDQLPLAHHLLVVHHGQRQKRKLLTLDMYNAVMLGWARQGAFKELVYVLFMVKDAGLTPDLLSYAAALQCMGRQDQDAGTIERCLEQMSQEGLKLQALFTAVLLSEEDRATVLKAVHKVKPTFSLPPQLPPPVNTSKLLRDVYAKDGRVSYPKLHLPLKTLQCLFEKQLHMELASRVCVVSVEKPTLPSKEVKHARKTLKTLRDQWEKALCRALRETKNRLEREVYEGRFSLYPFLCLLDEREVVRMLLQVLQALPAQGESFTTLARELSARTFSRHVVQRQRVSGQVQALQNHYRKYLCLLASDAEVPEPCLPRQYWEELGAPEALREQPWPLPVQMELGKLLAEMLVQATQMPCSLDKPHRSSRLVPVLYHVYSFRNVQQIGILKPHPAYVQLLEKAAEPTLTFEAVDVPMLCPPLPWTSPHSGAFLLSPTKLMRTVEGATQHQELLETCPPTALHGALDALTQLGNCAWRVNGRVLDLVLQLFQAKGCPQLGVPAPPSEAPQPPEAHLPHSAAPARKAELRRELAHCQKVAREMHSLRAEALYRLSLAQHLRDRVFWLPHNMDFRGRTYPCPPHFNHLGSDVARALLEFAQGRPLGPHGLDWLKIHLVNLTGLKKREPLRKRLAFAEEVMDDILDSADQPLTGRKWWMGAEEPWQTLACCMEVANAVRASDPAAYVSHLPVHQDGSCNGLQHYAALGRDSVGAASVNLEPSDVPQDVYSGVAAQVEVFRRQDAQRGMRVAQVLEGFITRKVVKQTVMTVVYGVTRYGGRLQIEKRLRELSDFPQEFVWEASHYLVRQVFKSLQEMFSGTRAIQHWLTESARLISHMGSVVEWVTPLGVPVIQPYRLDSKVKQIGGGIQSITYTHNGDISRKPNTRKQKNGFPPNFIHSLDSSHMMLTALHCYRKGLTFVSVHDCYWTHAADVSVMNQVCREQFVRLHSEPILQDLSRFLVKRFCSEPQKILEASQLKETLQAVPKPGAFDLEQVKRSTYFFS

T1 sequence (O00411 43-1230, one chain of several): as the sequence (O00411 43-1230, stated change not applied, one chain of several) above
Sequence of Human mitochondrial RNA polymerase (POLRMT) Δ42 (O00411 43-1230, stated change not applied): as the sequence (O00411 43-1230, stated change not applied, one chain of several) above
Sequence of POLRMT Δ42;TFAM Δ42;TFB2M Δ59 (O00411 43-1230, stated change not applied, one chain of several): as above
Sequence of POLRMT Δ42;TFAM Δ42;TFB2M Δ41, Alexa488 (O00411 43-1230, stated change not applied, one chain of several): as above

B1: Human transcription factor 2 (TFB2M) Δ59 (natural protein, UniProt Q9H5Q4 60-396, looked up)
chain: PPRKASKASLDFKRYVTDRRLAETLAQIYLGKPSRPPHLLLECNPGPGILTQALLEAGAKVVALESDKTFIPHLESLGKNLDGKLRVIHCDFFKLDPRSGGVIKPPAMSSRGLFKNLGIEAVPWTADIPLKVVGMFPSRGEKRALWKLAYDLYSCTSIYKFGRIEVNMFIGEKEFQKLMADPGNPDLYHVLSVIWQLACEIKVLHMEPWSSFDIYTRKGPLENPKRRELLDQLQQKLYLIQMIPRQNLFTKNLTPMNYNIFFHLLKHCFGRRSATVIDHLRSLTPLDARDILMQIGKQEDEKVVNMHPQDFKTLFETIERSKDCAYKWLYDETLEDR
B1: binds [1].

B2: Human transcription factor 2 (TFB2M) SGG-AAA (natural protein, UniProt Q9H5Q4 60-396, looked up)
chain: PPRKASKASLDFKRYVTDRRLAETLAQIYLGKPSRPPHLLLECNPGPGILTQALLEAGAKVVALESDKTFIPHLESLGKNLDGKLRVIHCDFFKLDPRAAAVIKPPAMSSRGLFKNLGIEAVPWTADIPLKVVGMFPSRGEKRALWKLAYDLYSCTSIYKFGRIEVNMFIGEKEFQKLMADPGNPDLYHVLSVIWQLACEIKVLHMEPWSSFDIYTRKGPLENPKRRELLDQLQQKLYLIQMIPRQNLFTKNLTPMNYNIFFHLLKHCFGRRSATVIDHLRSLTPLDARDILMQIGKQEDEKVVNMHPQDFKTLFETIERSKDCAYKWLYDETLEDR
B2: binds [2].

B3: Human mitochondrial transcription factor A (TFAM) Δ42 (natural protein, UniProt Q00059 43-245, looked up)
chain: SSVLASCPKKPVSSYLRFSKEQLPIFKAQNPDAKTTELIRRIAQRWRELPDSKKKIYQDAYRAEWQVYKEEISRFKEQLTPSQIMSLEKEIMDKHLKRKAMTKKKELTLLGKPKRPRSAYNVYVAERFQEAKGDSPQEKLKTVKENWKNLSDSEKELYIQHAKEDETRYHNEMKSWEEQMIEVGRKDLLRRTIKKQRKYGAEE
B3: binds [1].

B4: Alexa488-Δ41 TFB2M (natural protein, human, UniProt Q9H5Q4 42-396, looked up)
chain: CGLSDSSPQLWPEPDFRNPPRKASKASLDFKRYVTDRRLAETLAQIYLGKPSRPPHLLLECNPGPGILTQALLEAGAKVVALESDKTFIPHLESLGKNLDGKLRVIHCDFFKLDPRSGGVIKPPAMSSRGLFKNLGIEAVPWTADIPLKVVGMFPSRGEKRALWKLAYDLYSCTSIYKFGRIEVNMFIGEKEFQKLMADPGNPDLYHVLSVIWQLACEIKVLHMEPWSSFDIYTRKGPLENPKRRELLDQLQQKLYLIQMIPRQNLFTKNLTPMNYNIFFHLLKHCFGRRSATVIDHLRSLTPLDARDILMQIGKQEDEKVVNMHPQDFKTLFETIERSKDCAYKWLYDETLEDR
modifications: Alexa Fluor 488 C5 maleimide label (labelling efficiency ~76%)
B4 showed a Kd [3] of 6.1 nM.

B5: Human transcription factor 2 (TFB2M) Y209A (natural protein, UniProt Q9H5Q4 21-396, looked up)
chain: GRFCILGSEAATRKHLPARNHCGLSDSSPQLWPEPDFRNPPRKASKASLDFKRYVTDRRLAETLAQIYLGKPSRPPHLLLECNPGPGILTQALLEAGAKVVALESDKTFIPHLESLGKNLDGKLRVIHCDFFKLDPRSGGVIKPPAMSSRGLFKNLGIEAVPWTADIPLKVVGMFPSRGEKRALWKLAADLYSCTSIYKFGRIEVNMFIGEKEFQKLMADPGNPDLYHVLSVIWQLACEIKVLHMEPWSSFDIYTRKGPLENPKRRELLDQLQQKLYLIQMIPRQNLFTKNLTPMNYNIFFHLLKHCFGRRSATVIDHLRSLTPLDARDILMQIGKQEDEKVVNMHPQDFKTLFETIERSKDCAYKWLYDETLEDR
B5: binds [2].

B6: Human transcription factor 2 (TFB2M) (GS)3-loop (natural protein, UniProt Q9H5Q4 21-396, looked up)
chain: GRFCILGSEAATRKHLPARNHCGLSDSSPQLWPEPDFRNPPRKASKASLDFKRYVTDRRLAETLAQIYLGKPSRPPHLLLECNPGPGILTQALLEAGAKVVALESDKTFIPHLESLGKNLDGKLRVIHCDFFKLDPGSGSGSGPPAMSSRGLFKNLGIEAVPWTADIPLKVVGMFPSRGEKRALWKLAYDLYSCTSIYKFGRIEVNMFIGEKEFQKLMADPGNPDLYHVLSVIWQLACEIKVLHMEPWSSFDIYTRKGPLENPKRRELLDQLQQKLYLIQMIPRQNLFTKNLTPMNYNIFFHLLKHCFGRRSATVIDHLRSLTPLDARDILMQIGKQEDEKVVNMHPQDFKTLFETIERSKDCAYKWLYDETLEDR
B6: binds [2].

B7: LSP -42 to +9 duplex (dsDNA)
DNA 1: TGTGTTAGTTGGGGGGTGACTGTTAAAAGTGCATACCGCCAAAAGATAAAA
DNA 2: TTTTATCTTTTGGCGGTATGCACTTTTAACAGTCACCCCCCAACTAACACA
With B7 the Kd [4] was 6.1 nM.

B8: LSP -43 to +13, -4 to +1 bubble (56 bp) (dsDNA)
DNA 1: ATGTGTTAGTTGGGGGGTGACTGTTAAAAGTGCATACCGAACAAAGATAAAATTTG
DNA 2: CAAATTTTATCTCCAGGCGGTATGCACTTTTAACAGTCACCCCCCAACTAACACAT
B8: binds [5].

B9: LSP bubble with pppGpGpA RNA (slipped IC3) (mixed)
DNA 1: ATGTGTTAGTTGGGGGGTGACTGTTAAAAGTGCATACCGAACAAAGATAAAATTTG
DNA 2: CAAATTTTATCTCCAGGCGGTATGCACTTTTAACAGTCACCCCCCAACTAACACAT
?: GGA
modifications: RNA 5' triphosphate
B9: binds (POLRMT Δ42;TFB2M Δ59).
